In the assay the target is T1, MUC1 (full-length wild-type DF3/MUC1 glycoprotein) (human, UniProt P15941 24-1255).
T1 construct: whole, on cells; One entry for endogenous and transfected wild-type MUC1; Co-immunoprecipitated from NP-40 lysates with mAb DF3; also called wild-type MUC1
As to the kind of experiment: co-IP from ZR-75-1 lysate: anti-MUC1 IP, anti-PKCµ blot (FIG. 13B).

B1: PKCµ (protein kinase Cµ), endogenous in ZR-75-1 cells (enzyme, human, UniProt Q15139 1-912, looked up)
chain: MSAPPVLRPPSPLLPVAAAAAAAAAALVPGSGPGPAPFLAPVAAPVGGISFHLQIGLSREPVLLLQDSSGDYSLAHVREMACSIVDQKFPECGFYGMYDKILLFRHDPTSENILQLVKAASDIQEGDLIEVVLSASATFEDFQIRPHALFVHSYRAPAFCDHCGEMLWGLVRQGLKCEGCGLNYHKRCAFKIPNNCSGVRRRRLSNVSLTGVSTIRTSSAELSTSAPDEPLLQKSPSESFIGREKRSNSQSYIGRPIHLDKILMSKVKVPHTFVIHSYTRPTVCQYCKKLLKGLFRQGLQCKDCRFNCHKRCAPKVPNNCLGEVTINGDLLSPGAESDVVMEEGSDDNDSERNSGLMDDMEEAMVQDAEMAMAECQNDSGEMQDPDPDHEDANRTISPSTSNNIPLMRVVQSVKHTKRKSSTVMKEGWMVHYTSKDTLRKRHYWRLDSKCITLFQNDTGSRYYKEIPLSEILSLEPVKTSALIPNGANPHCFEITTANVVYYVGENVVNPSSPSPNNSVLTSGVGADVARMWEIAIQHALMPVIPKGSSVGTGTNLHRDISVSISVSNCQIQENVDISTVYQIFPDEVLGSGQFGIVYGGKHRKTGRDVAIKIIDKLRFPTKQESQLRNEVAILQNLHHPGVVNLECMFETPERVFVVMEKLHGDMLEMILSSEKGRLPEHITKFLITQILVALRHLHFKNIVHCDLKPENVLLASADPFPQVKLCDFGFARIIGEKSFRRSVVGTPAYLAPEVLRNKGYNRSLDMWSVGVIIYVSLSGTFPFNEDEDIHDQIQNAAFMYPPNPWKEISHEAIDLINNLLQVKMRKRYSVDKTLSHPWLQDYQTWLDLRELECKIGERYITHESDDLRWEKYAGEQGLQYPTHLINPSASHSDTPETEETEMKALGERVSIL
notes: whole, on cells
Turning to B1, the binding result was “no binding”.

For the origin of these results see patent publication US20040166543A1 (Dana-Farber, published 2004).
